From PMC6872149, “Protein:Protein interactions in the cytoplasmic membrane apparently influencing sugar transport and phosphorylation activities of the e. coli phosphotransferase system” (PLoS ONE, 2019) come the findings set out here.

In the test the target is MtlA (mannitol PTS Enzyme IIC-IIB-IIA) fused to the T25 domain (pKNT25-mtlA) (E. coli, UniProt P00550 1-637). The experiment in a line: cell-based or functional assay.
Chain of MtlA (mannitol PTS Enzyme IIC-IIB-IIA) fused to the T25 domain (pKNT25-mtlA) (P00550 whole entry, the tested form may be a part): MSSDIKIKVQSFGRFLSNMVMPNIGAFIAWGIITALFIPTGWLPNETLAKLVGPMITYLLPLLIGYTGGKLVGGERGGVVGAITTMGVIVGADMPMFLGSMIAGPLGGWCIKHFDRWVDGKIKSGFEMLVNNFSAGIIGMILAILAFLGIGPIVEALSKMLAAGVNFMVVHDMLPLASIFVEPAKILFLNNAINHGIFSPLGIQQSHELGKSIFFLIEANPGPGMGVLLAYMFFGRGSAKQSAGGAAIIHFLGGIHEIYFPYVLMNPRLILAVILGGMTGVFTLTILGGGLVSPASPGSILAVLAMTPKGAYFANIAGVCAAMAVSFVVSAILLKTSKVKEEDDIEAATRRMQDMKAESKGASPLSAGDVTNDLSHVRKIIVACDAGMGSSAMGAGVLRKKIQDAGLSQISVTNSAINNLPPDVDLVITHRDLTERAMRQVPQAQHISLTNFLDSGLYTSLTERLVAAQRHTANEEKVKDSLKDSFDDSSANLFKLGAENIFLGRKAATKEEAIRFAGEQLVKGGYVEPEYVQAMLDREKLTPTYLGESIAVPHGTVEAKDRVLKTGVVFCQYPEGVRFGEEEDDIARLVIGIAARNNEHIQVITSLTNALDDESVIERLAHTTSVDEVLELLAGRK

B1: FruB (fructose PTS IIA-FPr) fused to the T18 domain (pUT18-fruB) (natural protein, E. coli, UniProt P69811 1-376, looked up)
chain: MFQLSVQDIHPGEKAGDKEEAIRQVAAALVQAGNVAEGYVNGMLAREQQTSTFLGNGIAIPHGTTDTRDQVLKTGVQVFQFPEGVTWGDGQVAYVAIGIAASSDEHLGLLRQLTHVLSDDSVAEQLKSATTAEELRALLMGEKQSEQLKLDNEMLTLDIVASDLLTLQALNAARLKEAGAVDATFVTKAINEQPLNLGQGIWLSDSAEGNLRSAIAVSRAANAFDVDGETAAMLVSVAMNDDQPIAVLKRLADLLLDNKADRLLKADAATLLALLTSDDAPTDDVLSAEFVVRNEHGLHARPGTMLVNTIKQFNSDITVTNLDGTGKPANGRSLMKVVALGVKKGHRLRFTAQGADAEQALKAIGDAIAAGLGEGA
As for B1, the “PEP-dependent [14C]mannitol phosphorylation in vitro, activity ratio (Enzyme II plus FruB / Enzyme II alone); purified His-FruB 0.23 μM added to crude extract Cr.Ext-ΔfruBKA-pMAL (no FruA)” value was found to be 1.2 ratio; the “PEP-dependent [14C]mannitol phosphorylation in vitro, activity ratio (Enzyme II plus FruB / Enzyme II alone); purified His-FruB 0.23 μM added to membrane pellets MP-WT-pMAL (no fruA overexpression)” value worked out at 1.5 ratio; the “PEP-dependent [14C]mannitol phosphorylation in vitro, activity ratio (Enzyme II plus FruB / Enzyme II alone); purified His-FruB 0.23 μM added to membrane pellets MP-WT-pMAL-fruA (fruA overexpressed)” value came out at 8.6 ratio; the “PEP-dependent [14C]mannitol phosphorylation in vitro, activity ratio (Enzyme II plus FruB / Enzyme II alone); purified His-FruB 0.23 μM added to membrane pellets MP-ΔfruBKA-pMAL (no FruA)” value was 1.2 ratio.
